Assay results as given in the DeepSol protein solubility set.

Assay: soluble on expression in E. coli; label from the status in PepcDB or PDB records
With “GPGSMVEACFLCLDSTEYMRNGDQYPTRMMAEQDAACLLANAKLQANAENTLGFLTTGGNACTVYETLTNNVDAIMTSIGSIPVNGKRCNFSSGLQIASLALSHRTNSRAEKRIVAFVGSPIGETAAELEALAKKLRKDDVAVDVVAFGVESNVELLQAFVKKVSKKENSRFLAVAARENLTDKLMSNAILLGEDLPEGAEGGGASMSGFGVDPNMDPELAMALRLSMEDEMQRQAAAAAAAASSAAPESAPASGSAATPAAPAAPAAAPVVDEDELSYENMSEEEMMRRAIALSLQDTAQGASDTASSPSVPQPATTSEACRNEEENEDDFAKGVEAALEEEEDEENRS” the “soluble on expression in E. coli” value was “soluble”. In the case of “GPGSMVQRTLFDFVSKKGDNATTEEVGSKTESGQPSASSRKRTAEDQVANGGASNLTRARVAKENNGALASLIVDPGWEAFLKPLTTSSNFERIEKFLEGELNAGKTILPPREMIFSAFNSTPLDMLKVVLLGQDPYHNVGQAHGLCFSVLPGVPPPPSLINMYKELATDIPGFVAPQHGYLQHWAEQGVLMLNATLTVEIHKANSHATCGWQTFTDDVIRLLSEKHKNPLVFLLWGGFAKRKISLIDRKRHVVIECAHPSPLSAAKWWGSRPFSKCNTALVEKKLSPIDWKLPVCLSKGK”, the “soluble on expression in E. coli” value is reported as “not soluble”. For “GPGSSISNLSMQTHAARMRTFMYWPSSVPVQPEQLASAGFYYVGRNDDVKCFCCDGGLRCWESGDDPWVEHAKWFPRCEFLIRMKGQEFVDEIQGRY”, the “soluble on expression in E. coli” value was “soluble”. For “GPHMADLLLNSTQFVQAFTYLIQNDKEFANKLHKAYLNGCSNLLLD”, the “soluble on expression in E. coli” value was “soluble”. With “GPLGSHMASEFINQGDVTEGNNNQEEVYCFCRNVSYGPMVACDNPACPFEWFHYGCVGLKQAPKGKWYCSKDCKEIANQRSKSKRQKRRK” the “soluble on expression in E. coli” value was “soluble”. For “GPLGSMIVFVRFNSSHGFPVEVDSDTSIFQLKEVVAKRQGVPADQLRVIFAGKELRNDWTVQNCDLDQQSIVHIVQRPWRK”, the “soluble on expression in E. coli” value was “soluble”. For “GPLGSPEFPGAFRTQKPSLNTVNVVGSSMGSGGVFTIDGKIKCVTAAHVLTGNSARVSGVGFNQMLDFDVKGDFAIADCPNWQGVAPKAQFCEDGWTGRAYWLTSSGVEPGVIGNGFAFCFTACGDAGSPVITEAGELVGVHTGSNKQGGGIVTRPSGQFCNVKPIKLSELSEFFAGPKVPLGDVKIGSHIIKDTCEVPSDLCALLAAKPELE”, the “soluble on expression in E. coli” value was “soluble”. In the case of “GPLGSPEFPGEFYIPPEPSNDAIEIFSSGIASGIHFSKYNNIPVKVTGSDVPQPIQHFTSADLRDIIIDNVNKSGYKIPTPIQKCSIPVISSGRDLMACAQTGSGKTAAFLLPILSKLLEDPHELELGRPQVVIVSPTRELAIQIFNEARKFAFESYLKIGIVYGGTSFRHQNECITRGCHVVIATPGRLLDFVDRTFITFEDTRFVVLDEADRMLDMGFSEDMRRIMTHVTMRPEHQTLMFSATFPEEIQRMAGEFLKNYVFVAIGIVGGACSDVKQTIYEVNKYAKRSKLIEILSEQADGTIVFVETKRGADFLASFLSEKEFPTTSIHGDRLQSQREQALRDFKNGSMKVLIATSVASRGLDIKNIKHVINYDMPSKIDDYVHRIGRTGRVGNNGRATSFFDPEKDRAIAADLVKILEGSGQTVPDFLRTC”, the “soluble on expression in E. coli” value is reported as “soluble”. For “GPLGSPEFPGRRKPEAQPFAHLTINAASIPSGSHKVTLSSWYHDRGWAKISNMTLSNGKLRVNQDGFYYLYANICFRHHETSGSVPTDYLQLMVYVVKTSIKIPSSHNLMKGGSTKNWSGNSEFHFYSINVGGFFKLRAGEEISIQVSNPSLLDPDQDATYFGAFKVQDID”, the “soluble on expression in E. coli” value was “soluble”. In the case of “GPLGSPPSKEILTLKQVQEFLKDGDDVVILGVFQGVGDPGYLQYQDAANTLREDYKFHHTFSTEIAKFLKVSLGKLVLMQPEKFQSKYEPRMHVMDVQGSTEASAIKDYVVKHALPLVGHRKTSNDAKRYSKRPLVVVYYSVDFSFDYRTATQFWRNKVLEVAKDFPEYTFAIADEEDYATEVKDLGLSESGGDVNAAILDESGKKFAMEPEEFDSDALREFVMAFKKGKLKPVIKSQPVPKNNKGAAAS”, the “soluble on expression in E. coli” value is reported as “soluble”. For “GPLGSTSLVQGLTPPPDFNQCLKNSPDEKFFSDFSNNMGSRKNPDPLATEEVPNQEQIPEEGFIHTQYGQKPEQPSGASAGHRFPQGYHSDKRRLSKASSKARSDDLSV”, the “soluble on expression in E. coli” value was “soluble”. For “GPLGSVGSWECPVCCVSNKAEDSRCVSCTSEKPGLVSASSSNSVPVSLPSGGCLGLDKFKKPEGSWDCEVCLVQNKADSTKCIACESAKPGT”, the “soluble on expression in E. coli” value was “soluble”. With “GQKESQTGKGMKIVTSFYPIYAMVKEVSGDLNDVRMIQSSSGIHSFEPSANDIAAIYDADVFVYHSHTLESWAGSLDPNLKKSKVKVLEASEGMTLERVPGLEDVEAGDGVDEKTLYDPHTWLDPEKAGEEAQIIADKLSEVDSEHKETYQKNAQAFIKKAQELTKKFQPKFEKATQKTFVTQHTAFSYLAKRFGLNQLGIAGISPEQEPSPRQLTEIQEFVKTYKVKTIFTESNASSKVAETLVKSTGVGLKTLNPLESDPQNDKTYLENLEENMSILAEELK” the “soluble on expression in E. coli” value was “soluble”. In the case of “GREQMASFESAYVALSRMKQHVQVYTDNREGWIKAIKNSPEKATAHDILEPRNDRAVKTADLLFGRARPLDETAAGRAALQQSGLAQGSSPGKFISPGKKYPQPHVALPAFDKNGKAAGIWLSPLTDRDGRLEAIGGEGRIMGNEDARFVALQNSRNGESLLAGNMGEGVRMARDNPDTGVVVRLAGDDRPWNPGAMTGGRVWAEPAPVAPVPQAGADIILPPEVLAQRAAEEQQRREMEKKAEQTAREMAGEARKAG”, the “soluble on expression in E. coli” value is reported as “not soluble”. With “GRFSDELVEACAEMVRQRWNPHPEPTWVCCVPSLRHLDLVPDFARRLAAKLGLPFIDAIEKVVDNPPQKMQQNRFHQCQNLDGAFVITPPLMPGPALLVDDIVDSAWTLTVLTALLRQAGCPTVYPLALASTSVK” the “soluble on expression in E. coli” value was “not soluble”. For “GRMENEESDVKPPDWPNPMNATSQFPQPQHFDSFGLRLPRDITELPEWSEGYPFYMAMGFPGYDLSADDIAGKFQFSRGMRRSYDAGFKLMVVEYAESTNNCQAAKQFGVLEKNVRDWRKVKPQLQNAHAMRRAFRGPKNGRFALVDQRVAEYVRYMQAKGDPITREAMQLKALEIAQEMNIPEKGFKASLGWCRRMMRRYDLSLRHKVPVPQHLPEDLTEKLVTYQRSVLALRRAHDYEVAQMGNADETPICLEVPSRVTVDNQGEKPVLVKTPGREKLKITAMLGVLADGRKLPPYIILRGTYIPPGKFPSGMEIRCHRYGWMTEDLMQDWLEVVWRRRTGAVPKQRGMLILNGFRGHATDSVKNSMESMNTDMVIIPGGLTSQLQVLDVVVYKPLNDSVRAQYSNWLLAGNLALSPTGNAKKPPLGLFLEWVMVAWNSISSESIVQGFKKCHISSNLEEEDDVLWEIESELPGGGEPPKDCDTESMAESN”, the “soluble on expression in E. coli” value was “soluble”. In the case of “GRSLGKLGMRYGKKRVHIAKRNLELAFPEKTPEEVQHIVEENFKNTGMALIETGITWFWPTWRFKTLIVEKDIHALKEKGAEGK”, the “soluble on expression in E. coli” value is reported as “not soluble”. In the case of “GSDDNKTTGATYDPNQPVTVESFMPVEGKLREKVIVKGSNFGTDKSKVKVYFVDEAAERLSTVIGIDNNTLYCLAPRQLPGGNRIKVIVDGKEVTTDGTFKYEQAQNVSTISGSASKDGNDDGDLASAKFKYMWGIAAVGNNTVLAYQRDDPRVRLISVDDNKVTTVHPGFKGGKPAVTKDKQRVYSIGWEGTHTVYVYMKASGWAPTRIGQLGSTFSGKIGAVALDETEEWLYFVDSNKNFGRFNVKTQEVTLIKQLELSGSLGTNPGPYLIYYFVDSNFYMSDQNLSSVYKITPDGECEWFCGSATQKTVQDGLREEALFAQPNGMTVDEDGNFYIVDGFKGYCLRKLDILDGYVSTVAGQVDVASQIDGTPLEATFNYPYDICYDGEGGYWIAEAWGKAIRKYAVE”, the “soluble on expression in E. coli” value is reported as “soluble”. In the case of “GSETCIYSNWSPWSACSSSTCEKGKRMRQRMLKAQLDLSVPCPDTQDFQPCMGPGCSDEDG”, the “soluble on expression in E. coli” value is reported as “soluble”. For “GSFLLPKLTSKKEVDQAIKSTAEKVLVLRFGRDEDPVCLQLDDILSKTSSDLSKMAAIYLVDVDQTAVYTQYFDISYIPSTVFFFNGQHMKVDYGSPDHTKFVGSFKTKQDFIDLIEVIYRGAMRGKLIVQSPIDPKNIPKYDLLYQDI”, the “soluble on expression in E. coli” value was “soluble”.
